Results: patent publication EP4375293A1 (Max-Planck-Gesellschaft zur Förderung der Wissenschaften …, dated 2024)

Assays:
[1] = target: SARS-CoV-2 wild type RBD (wt_RBD-AviHis) (SARS-CoV-2 (Wuhan/Wildtype strain)); test: BLI, biotinylated RBD, mass transport model fit
[2] = target: SARS-CoV-2 spike protein of the original Wuhan strain (SARS-CoV-2 (Wuhan/Wildtype strain), UniProt P0DTC2 14-1273); test: cell-based or functional assay
[3] = target: SARS-CoV-2 wild type RBD (wt_RBD-AviHis) (SARS-CoV-2 (Wuhan/Wildtype strain)); test: BLI, biotinylated RBD, mass transport model fit; remark: listed apart in the source

Binder	Kd [1] [nM]	Lowest virus neutralizing concentration (pM; IC99) [2] [pM]	Kd [3] [nM]
Re6H06 (VHH) VHH: QVQLVESGGGLVQPGGSLRLSCAASGVTLDYYAIGWFRQAPGKEREGVSCTSSSDGSTYYADSVKGRFTISRDNAKNTVYLQMNSLKPEDTGVYYCAVVPQTYYGGKYYSQCTANGMDYWGKGTLVTVSS	≤ 0.01		
Re9B09 (VHH) VHH: QVQLVESGGGLVQPGGSLRLSCAASGFTLDYYAIGWFRQAPGKEREGVSRISSSDGSTDYADSVKGRFTISRDNAKNTVYLQMNSLKPEDTAVYYCATVPGTYYSGNWYYTWHPEAVDYWGKGTQVTVSS	0.03		
Ma28D01 (VHH, Monomeric VHH) VHH: QVQLVESGGGLVQPGGSLRLSCVVSELGLDYYQIGWFRQAPGKEREGVSCFRSSDEIRYYADSVKGRFTTFRDNAGTTVYLQMNSLKPEDTGVYYCAVAPQTYYHGTWYGECAAAGMDSWGKGTQVTVSS		500	≤ 0.01
Ma28F04 (VHH, Monomeric VHH) VHH: QVQLVESGGGLVQPGGSLRLSCVVSDLGLDYYQIGWFRQAPGKEREGVSCFRSSDEIRYYADPVKGRFTTFRDNAGTTVYLQMNSLKPEDTGVYYCAVAPQTYYHGTWYGECAAAGMDSWGKGTLVTVSS		500	≤ 0.01
Re32D03 (VHH) VHH: QVQLVESGGGLVQPGGSLRLSCAISGITLDYYAVGWFLQAPGKEREGISCMRNWDGRTVYAPSVKGRFTISSDNAKKMVYLEMDNLKSEDTGVYYCAAGPLPPGISCRIPTPLGYDDWGQGTQVTVSS	≤ 0.01		
Re5D06 (VHH) VHH: QVQLVESGGGLVQPGGSLRLSCAASGITLDYYAIGWFRQAPGKEREGVSRIRSSDGSTNYADSVKGRFTMSRDNAKNTVYLQMNSLKPEDTAVYYCAYGPLTKYGSSWYWPYEYDYWGQGTQVTVSS	≤ 0.01		
Ma28H11 (VHH, Monomeric VHH; also called M28H11) VHH: QVQLVESGGGLVQPGGSLRLSCATSGLTLDHYAIGWFLQAPGKEREGVACVSDDERSLYAPSVMGRFSISRDNAKKTFYLEMNSLKPEDTGVYYCASGPVVPGTLCRIPTVLGYDDWGQGTQVTVSS		170	≤ 0.01
Ma16B06 (VHH, Monomeric VHH; also called VHH Ma16B06) VHH: QVQLVESGGGLVRTGGSLRLSCAASGSILQIWAMKWYRQAPGLQREWIATIPNSGEPFYASSVEGRFTGSRENEETVYLYLNNLEPEDTAVYYCEVNEGVPVREYWGQGTQVTVSS		1700	≤ 0.01
